The source of these data is US20230051872A1, “Multivalent D-Peptidic Compounds for Target Proteins” (Reflexion Pharmaceuticals, Inc., priority 2019, published 2023).

Residue numbers refer to the chain shown, from its start.

In one data set the target is PD-1/PD-L1 complex (Homo sapiens, UniProt Q9NZQ7). As to conditions: in vitro, reference 31; read-out: IC50, dissociation of PD-1/PD-L1 complex; cited from earlier work.
Data set [1] in a line: Subcutaneous immunization, ELISA for antigen-specific serum IgG (anti-drug antibodies). The class given is in vivo, BALB/c mice. As to conditions: repeated subcutaneous immunization with adjuvant, Days 0, 21, 35; serum to Day 42. How it is done:
Adjuvant was purchased from TiterMax. […] All the procedures related to animal handling, care and treatment in the study were performed according to the guidelines set forth in an ACUP protocol for polyclonal antisera production in mice, approved by the Institutional Animal Care and Use Committee (IACUC) of Josman LLC.

In data set [2] the target is Human PD-1-Fc (R&D Systems cat #1086-PD-050), biotinylated (human) (UniProt Q15116). Description: SPR (Table 2).
Data set [3] shares this target. Put plainly: SPR, D-peptidic compound on natural L-PD-1 (Example 1).

Chain of Human PD-1-Fc (R&D Systems cat #1086-PD-050), biotinylated (human) (Q15116 25-167 limits assumed): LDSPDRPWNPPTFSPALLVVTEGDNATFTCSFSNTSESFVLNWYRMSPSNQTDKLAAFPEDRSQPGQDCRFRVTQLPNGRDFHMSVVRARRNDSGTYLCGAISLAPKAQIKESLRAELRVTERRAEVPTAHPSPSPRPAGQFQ
Chain of PD-1/PD-L1 complex (Q9NZQ7 19-238 limits assumed, one chain of several): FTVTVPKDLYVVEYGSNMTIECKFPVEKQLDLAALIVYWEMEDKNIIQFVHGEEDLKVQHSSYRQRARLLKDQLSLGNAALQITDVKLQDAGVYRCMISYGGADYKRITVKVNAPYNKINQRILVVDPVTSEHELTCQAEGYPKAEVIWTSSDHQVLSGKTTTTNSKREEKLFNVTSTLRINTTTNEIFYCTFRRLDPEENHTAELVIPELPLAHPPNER

Turning to `C[C@@H](O)[C@H](NC(=O)N[C@@H](CC(N)=O)c1nc([C@H](N)CO)no1)C(=O)O` [CA-170], the IC50 on PD-1/PD-L1 complex was 5000 to 10000 µM.

With nivolumab, the “anti-drug antibody response (antigen-specific serum IgG)” value in data set [1] is listed as “strong serum IgG titers”.

B1: RFX-977296 (designed binder)
chain: TIDQWLLKNAKEDAIAELKKAGITSDLYFNWINVAGSVSSVNFHKNYILKAHA
modifications: D-protein
For the molecule B1, the figures for the Kd in data set [2] and in data set [3] were 1.51 µM and 0.625 µM, respectively.

B2: 977978 (designed binder)
chain: B1 chain with S25C
modifications: not fully specified; D-protein
Molecule B2 showed a Kd in data set [2] of 0.114 µM.
